Data on one substance can be found in paper PMC10148134.

Assay [1] addresses ovalbumin (OVA) (UniProt P01012). The assay is described as follows: BLI; 10 μg/mL proteins (OVA, Bm-SA) coupled on AR2G or SA sensors; various concentrations of βγ-CAT as analyte, PBS as buffer; association 300 s, dissociation 180 s; Octet R2; 1:1 model. (In general: In BLI a coated tip is dipped into the sample, and binding shifts an interference pattern.)
Assay [2] has as its target toad B. maxima serum albumin (Bm-SA) (Bombina maxima) (UniProt Q3T478). Described as above.

What is called Kd is the concentration at which binding is half-saturated. Higher therefore signals weaker binding.

Chain of UniProt Q3T478 (Q3T478 23-607): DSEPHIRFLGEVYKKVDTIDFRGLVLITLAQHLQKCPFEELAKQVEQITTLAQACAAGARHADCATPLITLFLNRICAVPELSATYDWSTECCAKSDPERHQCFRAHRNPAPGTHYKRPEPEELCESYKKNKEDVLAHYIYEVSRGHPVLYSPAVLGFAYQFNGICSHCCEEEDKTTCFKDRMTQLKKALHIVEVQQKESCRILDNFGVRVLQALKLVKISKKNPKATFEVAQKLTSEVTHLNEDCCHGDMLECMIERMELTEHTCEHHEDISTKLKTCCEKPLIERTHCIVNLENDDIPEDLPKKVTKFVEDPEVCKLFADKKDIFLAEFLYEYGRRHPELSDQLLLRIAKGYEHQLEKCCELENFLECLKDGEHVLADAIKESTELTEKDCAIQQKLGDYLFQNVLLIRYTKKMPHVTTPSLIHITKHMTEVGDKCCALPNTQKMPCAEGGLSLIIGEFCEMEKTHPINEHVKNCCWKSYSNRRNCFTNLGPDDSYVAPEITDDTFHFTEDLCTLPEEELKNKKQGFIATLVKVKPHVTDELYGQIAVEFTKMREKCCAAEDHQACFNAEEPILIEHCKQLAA
Chain of UniProt P01012 (P01012 whole entry): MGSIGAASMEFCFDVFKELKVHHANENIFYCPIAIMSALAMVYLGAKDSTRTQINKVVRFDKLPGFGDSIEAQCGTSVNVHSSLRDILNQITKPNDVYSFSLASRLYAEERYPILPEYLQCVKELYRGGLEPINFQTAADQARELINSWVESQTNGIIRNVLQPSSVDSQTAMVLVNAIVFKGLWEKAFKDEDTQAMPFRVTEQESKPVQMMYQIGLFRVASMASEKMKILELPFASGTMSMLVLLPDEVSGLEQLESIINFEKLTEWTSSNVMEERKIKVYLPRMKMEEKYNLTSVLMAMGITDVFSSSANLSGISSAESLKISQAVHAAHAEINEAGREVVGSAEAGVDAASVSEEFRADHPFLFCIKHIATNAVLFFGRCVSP

Turning to “βγ-CAT, pore-forming protein (PFP) and trefoil factor complex of BmALP1 and BmTFF3 from toad Bombina maxima”, the results for the Kd in assay [1] and in assay [2] were 0.0233 µM and 0.0247 µM, respectively.
